Laboratory results published in publication PMC4720564 (Chemical communications (Cambridge, England), 2016).

Tests used:
[1] = tested on: [C-]#[N+]/C=C\c1c[nH]c2ccccc12; test: purified protein; assay type: biochemical, Fischerella ambigua; details: co-substrate GPP, MgCl2 10 mM, pH 8.0
WelP1 = WelP1 (Hapalosiphon welwitschii, UniProt A0A067YVH5); test: LC-MS product formation; assay type: biochemical; details: co-substrate GPP; MgCl2 5 mM; Tris 50 mM pH 8.0

Compound	Km [1] [µM]	kcat [1] [s⁻¹]	LC-MS product formation (WelP1)
AmbP1 (Fischerella ambigua UTEX 1903)	15.4 ± 3.2	6.9 ± 1.2	
[C-]#[N+]/C=C\c1c[nH]c2ccccc12 [(Z)-1, cis-indolyl vinyl isonitrile]			The enzymatic products derived from WelP1 and FidP1 are perfectly identical to that from AmbP1
